According to patent publication US20240092937A1 (HUMMINGBIRD BIOSCIENCE HOLDINGS PTE, published 2024):
Values belong to the molecule of their own block, whether it stands above or below them.

Legend:
[1] = target: human HER3 expressed on cells (human) (UniProt P21860); assay: flow cytometry, HEK293 cells overexpressing human HER3, 20 ug/ml antibody, FITC anti-Fc secondary; isotype on WT HEK293: 0.07
[2] = target: human HER3 expressed on cells (human) (UniProt P21860); assay: flow cytometry on HEK293T HER3 O/E cells, '10 ug' antibody as printed (10 µg/ml by paragraph 872), FITC anti-Fc secondary
[3] = target: human HER4 expressed on HEK293 cells (human) (UniProt Q15303); assay: flow cytometry on HEK293 HER4 overexpressing cells, 10 µg/ml antibody
[4] = target: His-tagged FcγRIIIa (V158) (UniProt P08637); assay: Bio-Layer Interferometry, determined as described in Example 7; receptor row FcgRIIIA (V158)
moFcRn (mouse) = target: T1, moFcRn (mouse) (UniProt Q61559); assay: Bio-Layer Interferometry, determined as described in Example 7
T1 sequence (receptor, looked up): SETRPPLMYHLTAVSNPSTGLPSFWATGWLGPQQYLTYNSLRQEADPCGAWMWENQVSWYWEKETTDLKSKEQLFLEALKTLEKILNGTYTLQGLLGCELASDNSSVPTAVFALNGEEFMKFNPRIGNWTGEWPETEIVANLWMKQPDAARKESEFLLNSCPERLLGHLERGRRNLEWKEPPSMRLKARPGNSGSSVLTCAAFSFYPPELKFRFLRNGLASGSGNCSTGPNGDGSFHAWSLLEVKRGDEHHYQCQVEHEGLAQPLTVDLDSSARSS
T1 sequence (looked up): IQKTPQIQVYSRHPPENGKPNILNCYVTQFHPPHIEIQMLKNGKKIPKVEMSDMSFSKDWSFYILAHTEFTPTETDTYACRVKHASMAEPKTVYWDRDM

FcRn (human) = FcRn (human) (UniProt P55899); assay: as above
FcgRIIIA (F158) (human) = FcgRIIIA (F158) (human) (UniProt P08637); assay: as above
moFcgRIV (mouse) = assay: as above
[5] = target: human HER3 expressed on cells (human) (UniProt P21860); assay: flow cytometry, HEK293 cells overexpressing human HER3, 20 ug/ml antibody, FITC anti-Fc secondary; same antibody on WT HEK293: 8.15
[6] = target: human HER3 expressed on cells (human) (UniProt P21860); assay: flow cytometry, HEK293 cells overexpressing human HER3, 20 ug/ml antibody, FITC anti-Fc secondary; same antibody on WT HEK293: 1.91
FcgRIIA (H167) (human) = assay: Bio-Layer Interferometry, determined as described in Example 7
Chain of FcgRIIA (H167) (human) (P12318 34-217): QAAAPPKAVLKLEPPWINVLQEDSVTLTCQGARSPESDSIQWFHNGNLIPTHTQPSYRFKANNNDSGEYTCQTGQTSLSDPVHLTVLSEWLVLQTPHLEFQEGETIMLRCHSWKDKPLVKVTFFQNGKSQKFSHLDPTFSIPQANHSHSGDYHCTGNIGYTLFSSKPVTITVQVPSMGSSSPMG

FcgRIIA (R167) (human) = assay: as above
FcgRIIB (human) = assay: as above
Chain of FcgRIIB (human) (P31994 43-217): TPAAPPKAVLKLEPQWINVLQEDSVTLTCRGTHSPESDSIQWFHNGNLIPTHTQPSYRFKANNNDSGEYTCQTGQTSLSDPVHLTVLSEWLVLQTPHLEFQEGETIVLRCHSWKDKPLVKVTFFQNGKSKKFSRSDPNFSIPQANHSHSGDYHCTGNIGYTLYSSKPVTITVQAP

[7] = target: human HER3 polypeptide, recombinant (His-tagged human HER3) (human) (UniProt P21860); assay: plate ELISA dimerisation assay: human EGFR-His coated, HER3-biotin 4 µg/ml and NRG 0.1 µg/ml constant, antibody titrated; blocked interaction EGFR:HER3
[8] = target: human HER3 polypeptide, recombinant (His-tagged human HER3) (human) (UniProt P21860); assay: BLI (Octet QK384), His-tagged human HER3 on anti-Penta-HIS tips, saturating antibody LJM-716 (400 nM), then competing antibody MM-121 (300 nM)
[9] = target: T2, human EGFR polypeptide, recombinant (human, UniProt P00533 25-645); assay: ELISA, plate coated with 0.1 ug/ml target polypeptide, antibody serially diluted
T2 construct: also called human HER1 (EGFR); human EGFR-His
Procedure: (§1) ELISAs were used to determine the binding specificity of the antibodies. […] The antibodies were also analysed for their ability to bind to human EGFR and human HER2 (Sino Biological Inc., China).
(§2) ELISAs were carried out according to standard protocols. Briefly, 96-well plates (Nunc, Denmark) were coated with 0.1 μg/ml of target polypeptide in phosphate-buffered saline (PBS) for 16 h at 4° C. After blocking for 1 h with 1% BSA in Tris buffer saline (TBS) at room temperature, the anti-HER3 antibody was serially diluted with the highest concentration being 10 μg/ml, and added to the plate. Post 1 h incubation at room temperature, plates were washed three times with TBS containing 0.05% Tween 20 (TBS-T) and were then incubated with a HRP-conjugated […] antibody (Life Technologies, Inc., USA) for 1 h at room temperature. After washing, plates were developed with colorimetric detection substrate 3,3′,5,5′-tetramethylbenzidine (Turbo-TMB; Pierce, USA) for 10 min.

mouse HER3 polypeptide = target: T3, mouse HER3 polypeptide (mouse, UniProt Q61526 20-641); assay: as above
T3 construct: also called M. musculus HER3 homologue
T3 sequence (Q61526 20-641 limits assumed): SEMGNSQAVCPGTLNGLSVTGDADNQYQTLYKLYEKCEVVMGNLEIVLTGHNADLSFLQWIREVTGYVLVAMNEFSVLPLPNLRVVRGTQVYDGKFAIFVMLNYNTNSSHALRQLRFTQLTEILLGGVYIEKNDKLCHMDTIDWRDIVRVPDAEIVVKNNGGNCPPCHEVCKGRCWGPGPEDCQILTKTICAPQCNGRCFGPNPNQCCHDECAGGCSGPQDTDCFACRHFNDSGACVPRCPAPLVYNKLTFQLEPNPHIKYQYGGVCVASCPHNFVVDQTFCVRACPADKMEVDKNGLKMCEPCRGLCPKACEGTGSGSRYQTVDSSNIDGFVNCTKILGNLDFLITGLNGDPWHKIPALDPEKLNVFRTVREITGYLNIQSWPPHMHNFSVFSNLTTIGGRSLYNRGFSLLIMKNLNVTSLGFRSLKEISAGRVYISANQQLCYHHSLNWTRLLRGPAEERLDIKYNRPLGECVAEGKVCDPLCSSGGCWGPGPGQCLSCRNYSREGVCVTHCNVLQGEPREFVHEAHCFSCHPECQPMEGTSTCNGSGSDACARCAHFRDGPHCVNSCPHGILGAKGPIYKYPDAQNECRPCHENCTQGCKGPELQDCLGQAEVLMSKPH
Procedure: as §1, §2

[10] = target: human HER2 polypeptide, recombinant (His-tagged HER2 protein) (human, UniProt P04626 23-652); assay: as above
Procedure: as §1, §2

rat HER3 polypeptide = target: T4, rat HER3 polypeptide (rat, UniProt Q62799 20-643, limits assumed); assay: as above
T4 construct: also called R. norvegicus HER3 homologue
T4 sequence (Q62799 20-643 limits assumed): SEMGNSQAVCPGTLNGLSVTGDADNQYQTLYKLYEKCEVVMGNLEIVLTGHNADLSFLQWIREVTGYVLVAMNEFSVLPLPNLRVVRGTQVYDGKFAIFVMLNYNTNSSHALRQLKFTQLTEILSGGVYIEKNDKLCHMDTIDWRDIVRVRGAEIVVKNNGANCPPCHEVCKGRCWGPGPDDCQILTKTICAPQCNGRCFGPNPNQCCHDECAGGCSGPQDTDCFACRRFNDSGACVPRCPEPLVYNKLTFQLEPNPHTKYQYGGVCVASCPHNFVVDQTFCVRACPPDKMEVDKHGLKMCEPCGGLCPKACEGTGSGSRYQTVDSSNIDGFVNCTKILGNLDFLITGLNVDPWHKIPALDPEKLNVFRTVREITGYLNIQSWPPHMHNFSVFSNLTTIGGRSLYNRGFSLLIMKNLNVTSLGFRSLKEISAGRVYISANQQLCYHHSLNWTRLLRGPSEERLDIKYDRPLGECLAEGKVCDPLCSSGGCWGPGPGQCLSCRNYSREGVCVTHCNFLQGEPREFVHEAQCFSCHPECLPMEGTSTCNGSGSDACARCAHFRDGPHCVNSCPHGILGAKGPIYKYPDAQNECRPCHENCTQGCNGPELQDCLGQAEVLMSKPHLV
Procedure: as §1, §2

[11] = target: T5, human HER3 polypeptide, recombinant (His-tagged human HER3) (human, UniProt P21860 20-643, biotinylated in the assays of paragraph 766 and paragraph 908); assay: ELISA on human HER3 polypeptide coated at 0.1 ug/ml
T5 construct: Bought protein (Sino Biological for the ELISAs); also called HER3 His; HER3-biotin

% Parent (HER3 positive) [1]: 0.12%
Molecule: Isotype (antibody)

% Parent (HER3 positive gate) [2]: 0.18%
% Positive for HER4 [3]: 0.07%
Molecule: hIgG1 Isotype (antibody)

Kd [4]: 705 nM
Kd (moFcRn (mouse)): 12.8 nM
Kd (FcRn (human)): 16.5 nM
Kd (FcgRIIIA (F158) (human)): 5380 nM
Kd (moFcgRIV (mouse)): 701 nM
% Parent (HE3 Positive) [5]: 98.7%
% Parent (HER3 positive gate) [2]: 74.4%
% Positive for HER4 [3]: 0.27%
% Parent (HER3 positive) [6]: 99.5%
Molecule: anti-HER3 antibody clone LJM716

Kd [4]: 7050 nM
Kd (moFcRn (mouse)): 6.69 nM
Kd (FcgRIIA (H167) (human)): 222 nM
Kd (FcRn (human)): 11.5 nM
Kd (FcgRIIA (R167) (human)): 243 nM
Kd (FcgRIIB (human)): 1440 nM
IC50 [7]: 54.2 nM
% Positive for HER4 [3]: 8.73%
cell of the competition table (name and unit of the value not given) [8]: 0.693
B1: anti-HER3 antibody MM-121 (seribantumab) (antibody, INN chains, looked up, human IgG2)
heavy: EVQLLESGGGLVQPGGSLRLSCAASGFTFSHYVMAWVRQAPGKGLEWVSSISSSGGWTLYADSVKGRFTISRDNSKNTLYLQMNSLRAEDTAVYYCTRGLKMATIFDYWGQGTLVTVSSASTKGPSVFPLAPCSRSTSESTAALGCLVKDYFPEPVTVSWNSGALTSGVHTFPAVLQSSGLYSLSSVVTVPSSNFGTQTYTCNVDHKPSNTKVDKTVERKCCVECPPCPAPPVAGPSVFLFPPKPKDTLMISRTPEVTCVVVDVSHEDPEVQFNWYVDGVEVHNAKTKPREEQFNSTFRVVSVLTVVHQDWLNGKEYKCKVSNKGLPAPIEKTISKTKGQPREPQVYTLPPSREEMTKNQVSLTCLVKGFYPSDIAVEWESNGQPENNYKTTPPMLDSDGSFFLYSKLTVDKSRWQQGNVFSCSVMHEALHNHYTQKSLSLSPG
light: QSALTQPASVSGSPGQSITISCTGTSSDVGSYNVVSWYQQHPGKAPKLIIYEVSQRPSGVSNRFSGSKSGNTASLTISGLQTEDEADYYCCSYAGSSIFVIFGGGTKVTVLGQPKAAPSVTLFPPSSEELQANKATLVCLVSDFYPGAVTVAWKADGSPVKVGVETTKPSKQSNNKYAASSYLSLTPEQWKSHRSYSCRVTHEGSTVEKTVAPAECS

binding result [9]: binds
binding result (mouse HER3 polypeptide): binds
binding result [10]: binds
binding result (rat HER3 polypeptide): binds
B2: anti-HER3 clone 4-35-B4 IgG1 (antibody, V domains shown)
VH: EVQLQQSGAELVKPGASVKLSCTASGFNIKDTYIHWVKQRPDQGLEWIGKIIDPANGNTNYDPKFQGKATITADTSSNTAYLQLSSLSSEDTAVYFCARGLHWGQGTTLTVSS
VL: DIVLTQSPASLAVSLGQRATISCRASKSVSTSGYSYMHWYQQKPGQPPKLLIYLASNLESGVPARFSGSGSGTDFTLNIHPVEEEDAATYYCQHSRELPYTFGGGTKLEIKR
notes: Human IgG1 / kappa chimeric

EC50 (read off the curve) [11]: ~6 ng/mL
B3: anti-HER3 clone 10D1_c90 IgG1 (antibody, V domains shown)
VH: QVQLQESGPGLVKPSQTLFLTCTVSGYSITSGYSWHWIRQHPGKGLEWIGSIRYSGGTDYNPSLKSLVTISVDTSKNQFSLKLSSVTAADTAVYYCARMTTAPWYPFDYWGQGTTVTVSS
VL: DIQMTQSPSSVSASVGDRVTFTCKASQIVGSNVAWYQQKPGKAPEPLIYSASYLYSSVPSRFSGSGSGTEFTMTISSLEPEDFATYYCQQYTTHPLTFGPGTKVEIKR
notes: Humanised 10D1 variant, human IgG1 / kappa
